The target in assay [1] is human CD33 (human) (UniProt P20138). The assay can be described thus: flow cytometry, human primary T cells.
Assay [2] shares this target. The assay can be described thus: flow cytometry, human primary dendritic cells. A general note: A flow cytometer gives signals particle by particle.
Assay [3] has the same target. The assay can be described thus: cell-based or functional assay.
Assay [4] has the same target. The assay can be described thus: flow cytometry, human primary macrophages.
For assay [5] the target is unchanged. The assay can be described thus: flow cytometry, human primary monocytes.

Sequence of human CD33 (human) (P20138 18-364): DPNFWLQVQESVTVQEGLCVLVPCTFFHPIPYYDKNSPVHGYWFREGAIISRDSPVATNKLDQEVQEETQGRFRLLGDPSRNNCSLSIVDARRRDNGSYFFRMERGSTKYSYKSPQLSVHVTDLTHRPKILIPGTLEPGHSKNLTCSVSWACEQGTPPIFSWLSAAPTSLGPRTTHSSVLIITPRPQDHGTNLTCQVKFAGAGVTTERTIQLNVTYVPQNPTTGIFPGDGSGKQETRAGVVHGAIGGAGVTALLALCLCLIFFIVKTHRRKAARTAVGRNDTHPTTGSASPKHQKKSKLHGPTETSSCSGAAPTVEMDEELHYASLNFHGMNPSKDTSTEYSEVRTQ

B1: C-51 (antibody, V domains shown)
VH: QLQLQESGPGLVKPSETLSLTCTVSGGSISSSSYYWGWIRQPPGKGLEWIGSIYYSGSTYYNPSLKSRVTISVDTSKNQFSLKLSSVTAADTAVYYCARGAPHDYGGGVGWFDPWGQGTTVTVSS
VL: DIQMTQSPSSVSASVGDRVTITCRASQGISSWLAWYQQKPGKAPKLLIYAASNLQSGVPSRFSGSGSGTDFTLTISSLQPEDFATYYCQQSRVFPWTFGGGTKVEIK
Turning to B1, the T cell MFI in the assay with human CD33 (human) [1] amounted to 29.3. In the assay with human CD33 (human) [2], the DC MFI was 496. In the assay with human CD33 (human) [3], the Percent CD33 Surface Expression, DC % CD33 amounted to 86% and the Percent CD33 Surface Expression, Monocyte % CD33 was 88%. This molecule also gave a Macrophage MFI with human CD33 (human) [4] of 656. The molecule also had a Monocyte MFI in the assay with human CD33 (human) [5] of 126.

The values above are taken from patent US20220281976A1.
